Test results: PMC8542614 (Nature, 2021)
Like-named read-outs stand apart in the source and are kept apart here.

Columns and labels:
[1] = molecular target: T1, HCV E2 ectodomain (eE2), full length, residues 384-656, genotype J6 (HCV genotype J6, N-linked glycans (fully glycosylated)); assay: ITC
[2] = molecular target: T1, HCV E2 ectodomain (eE2), full length, …; assay: ITC; remark: listed apart in the source

B1: tamarin CD81 large extracellular loop (tCD81-LEL), residues 112-202, with plasmid-encoded N-terminal residues (domain or fragment)
chain: GFVNKDQIAKDVKQFYDQALQQAVVDDDANNAKAVVKTFHETLNCCGSSTLSALTTSMLKNNLCPSGSSIISNLFKEDCHQKIDELFSGKL
For B1, which Kd [1] is on record?
Its Kd is 175 nM.

What about the dH [1] of the same binder?
The dH was -8.52 kcal/mol.

What about the “stoichiometry N” value [1] of the same binder?
Its value is 0.67.

And the Kd [2]?
Its Kd is 37 nM.

And the dH [2]?
The dH was -12.3 kcal/mol.

What about the “stoichiometry N” value [2] of the same binder?
The value was 0.57.
